# In paper PMC2536506:
# Molecular target: GST-TDRD3-Tdr E691K (human)
# Assay: pull-down
row,Substance,percent reduction of binding against wild-type GST-TDRD3-Tdr [%]
1,Eukaryotic translation elongation factor 1 alpha 1 (from UniProt P68104 1-462) (natural protein),90
2,DEAD/H box-3 (from UniProt O00571-1 1-662) (natural protein),50
